# Measured values reported in the nanobody polyreactivity screen of Harvey et al. (2022).
# Assay: yeast display, Sf9 membrane polyspecificity reagent, FACS + sequencing; frameworks hold sequencing errors
# Procedure, shortened: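 Using colony PCR, genes from sorted yeast display clones were amplified, then sequenced on MiSeq at 2 × 250 and filtered by CDR length. The clones had been stained with 10% biotinylated, detergent-solubilized Sf9 membrane reagent for 1 hour at 4 °C and sorted by FACS into low and high (top ~1%) gates on anti-HA and streptavidin fluorescence. Polyreactivity labels come from the gate of origin.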
row,Sequence,polyreactivity (PSR sort gate)
1,QVQLVESGGGLVQAGGSLRLSCAASGYIFWLNALGWYRQAPGKERELVAAIRSSGGSTYYADSVKGRFTISRDNAKNTVYLQMNSLKPEDTAVYDCARRGYNWYTHFGYDYWGQGTQVTVSS,low polyreactivity
2,QVQLVESGGGLDQAGGSLRLSCAASGSTFVSNAMGWYRQAPGKERELVAAISKSGGSTYYADSVKGRFTISRDNAKNTVYLQMNSLKPEDTAVYYCAKYNAKSFYGQYDYWGQGTQVTVSS,high polyreactivity
3,QVQLVESGGGLVQAGGSLRLSCAASGSTFAAYAKGWYRQAPGKERELVAAISRSGGTTYYADSVKGRFTISRDNAKNTVYLQMNSLKPEDTAVYYCAAEQWYDNYLEYDYWGQGTQVTVSS,high polyreactivity
4,QFQLVESGGGLVQAGGSLRLSCAASGSTFPRYAMGWYRPAPGKERELVAAISRSGTSTYYADSVKGRFTISRDNAKNTVYLQMNSLKPEDTAVYYCAAEYHPRVLYPNWYDYWGQGTQVTVSS,low polyreactivity
5,QVQHVDSGGGLVQEGGSLRLICAASGSIFEQYTMGWYIQAPGKERELVAAISRRSGRTYYADSVKGRFTISRDNAKNTVYLQMNSLKPADTAVYYCAAQHAIYRNPGLDDYWGQGTQVTVSS,high polyreactivity
6,QVQLVESGGGLVQAGGSLSLSCAASGSTYARYTMGWYRQAPGKERELVAAISGRGGSTYYADSVKGRFTISRDNAKNTVYLQMNSLKPEDTAVYYCAAHDTYHSYGLYSWGQGTQVTVSS,low polyreactivity
7,QVQLLESGRGLVQAGGTLRLSCAPSGRTFSVNAMGWYRQAPGKERELVAAISWDGGSTYYADSVKVRFTISRDNAKNTVYLQMNSLKQEDTAVYYCNKDLYYAYDYWGQGTQVTVSS,low polyreactivity
8,QVQLVESGGGLVQAGGSLRLSCAASGRTFRYYAMGWYRQAPGKERELVAVITQSGGRTYYADSVKGRFTISRDNAKNTVYLQMNSLKPEDTAVYYCNAVFPGFFRSSPTYDYWGQGTQVTVSS,high polyreactivity
9,QVQLVESGGGLVQAGGSLRLSCAASGLTLAPYAMGWYRQAPGKERELVAAITFSGGSTYYADSVKGRFTISRDNAKNTVYLQMNSLKPEDTAVYYCARDTWAYKNGYPYYSWGQRTQVTVSS,low polyreactivity
10,QVQLVDSGGGLVQAGGILRLSCAASGSIFSSYAMGWYRQAPGKERELVAAITSGGSTYYADSVKGRFTISRDNAKITVYLQMNSLKREDTAVYYCAAYLSYFGYDYWGQGTQVTVSS,low polyreactivity
11,QVQLVESGGGLVQAGGSLRLSCAASGITFDYYAMGWYRQSPGKERELVAAISYSAGSTYYADSVKGRFTISRDNAKNTVYLQMNSLKPEDTAVYYCAAETFTISSDYYYWGQGTQVTVSS,low polyreactivity
12,QVQLVESGGGLVQAGGSLRLSCAASGFTFYRYAMGWYRQAPGKERELVAAISRGGSTNYADSVKGRFTISRDNAKNTVYLQMNSLKPEDTAVYYCNTRYVKGFYWGQGTQVTVSS,high polyreactivity
13,QVQLVESGGGLVQAGGSLRLSCAASGSTFEDNTMGWYRQAPGKERELVAAISNSGGSTYYADSVKGRFTISRDNAKNTVYLQMNSLKPEDTAVYYCAADFYDPFDYWGQGTQVTVSS,low polyreactivity
14,QVQLVESGGVLVQAGGSLRLSCAASGSIFSYNVMGWYRQAQGKEREFVAAITRSGGSTYYADSVKGRFTISRDNAKNTVYLQMNSLKPEDTAVYYCATAYYYTPFREYYYWGQGTQVTVSS,low polyreactivity
15,QVQLVESGGGLVQAGGSLRLSCAASGGIFYTYAMGWYRQAPGKERELVAGINWSGSSTYYADSVKGRFTISRDNAKNTVYLQMNSLKPEDTAVYYCAARSYSYSTGDYWGQGTQVTVSS,low polyreactivity
16,QVQLVESGGGLVQAGGRLRLSCAASGRIFGYYAIGWYRQAPGKERELVARISRGGSTYYADSVKGRFTISRDNAKNTVYLQMNSLKPEETAVYSCAATRSGYTSYTDDSGGQGTQVTVSS,high polyreactivity
17,QVQLVESGGGLVQAGGSLRLSCAASGGIFGLYTMGWYRQAPGKERELVAGISKRGTRTRYADSVKGRFTISRDHAKNTVYLQMNSLKPEDTAVYYCNADYYVSKLDYWGQGTQVTVSS,high polyreactivity
18,QVQLVESGGGFVQAGGSLRLSCAASGSIFWLYDMGWYRQAAGKVRELVAAISWSTGGTYYADSVKGRFTISRENAKNTVYLQMNSLKPEDTAVYYCNAETYDQYNYWGQGTQVTVSS,low polyreactivity
19,QVQLVESGGGLVQAGGSLRVSCAASGSTLGRNTMGWYRQAPGKVRELVAAITITDSTNYADSVKGRFTISRDNAKNTVYLQMNSLKPEDTAVYYGAKRRYYSTPRWGSSTYDYWGLGTQVTVSS,low polyreactivity
20,QVQLVESGGRLVQAGGSLRLSCAASGRIIAYNAKGWYRQAPGKERELVDAISRSGGSTYYADSVKGRFTISRDNAKNTVYLQMNSLKPEDTAVYYCAASLKVPYATMNYWGQGTQVTVSS,high polyreactivity
21,QVQLVESGGGLVQAGGSLRLSCAASGRIFSYYAMGWYRQAPGKERELVATISYSGGSTYYADSVKGRFTISRDNAKNTVYLQMNSLKPEDTAVYYCAATRYPYYSFVRFPSRRFNYWGQGTQVTVSS,high polyreactivity
22,QVQLVESGGGLVQAGGSLRLSCAASGSTFWQYAMGWYRQAPGKERELVAAISYSGGSTYYADSVKGRFTISRDNAKNTVYLQMNSLKPEDTAVYYCAKEYNVGFYLVFNRFDYWGQGTQVTVSS,low polyreactivity
